Substrate in this data set: CC=O
Briefly: purified protein. The format is biochemical, Homo sapiens. As to conditions: NAD+.

Drawing on PMC12366639, this text covers Km for one protein.

B1: aldehyde dehydrogenase 2 (ALDH2) (Homo sapiens) (protein)
chain: SAAATQAVPAPNQQPEVFCNQIFINNEWHDAVSRKTFPTVNPSTGEVICQVAEGDKEDVDKAVKAARAAFQLGSPWRRMDASHRGRLLNRLADLIERDRTYLAALETLDNGKPYVISYLVDLDMVLKCLRYYAGWADKYHGKTIPIDGDFFSYTRHEPVGVCGQIIPWNFPLLMQAWKLGPALATGNVVVMKVAEQTPLTALYVANLIKEAGFPPGVVNIVPGFGPTAGAAIASHEDVDKVAFTGSTEIGRVIQVAAGSSNLKRVTLELGGKSPNIIMSDADMDWAVEQAHFALFFNQGQCCCAGSRTFVQEDIYDEFVERSVARAKSRVVGNPFDSKTEQGPQVDETQFKKILGYINTGKQEGAKLLCGGGIAADRGYFIQPTVFGDVQDGMTIAKEEIFGPVMQILKFKTIEEVVGRANNSTYGLAAAVFTKDLDKANYLSQALQAGTVWVNCYDVFGAQSPFGGYKMSGSGRELGEYGLQAYTEVKTVTVKVPQKNS
A word on the Km: it is the substrate concentration at which the rate is half of its maximum. Regarding B1, the Km was 1.8 µM.
